Data: paper PMC3114107
Read-outs that look alike come from different tables or passages of the source.

How the values were obtained:
[Lys]plasminogen (human) [1] = steady-state kinetics of Pg activation
[2] = biological target: [5F]FFR-[Lys]Pg ([Lys]plasminogen inactivated with ATA-FFR-CH2Cl and labeled with 5-(iodoacetamido)fluorescein) (human); assay: other fluorescence titration
[3] = biological target: [5F]FFR-[Lys]Pg ([Lys]plasminogen inactivated with ATA-FFR-CH2Cl and labeled with 5-(iodoacetamido)fluorescein) (human); assay: other fluorescence titration; remark: listed apart in the source
[Lys]plasminogen (human) [4] = steady-state kinetics of Pg activation; remark: listed apart in the source

[Lys]plasminogen (human), sequence (P00747 whole entry): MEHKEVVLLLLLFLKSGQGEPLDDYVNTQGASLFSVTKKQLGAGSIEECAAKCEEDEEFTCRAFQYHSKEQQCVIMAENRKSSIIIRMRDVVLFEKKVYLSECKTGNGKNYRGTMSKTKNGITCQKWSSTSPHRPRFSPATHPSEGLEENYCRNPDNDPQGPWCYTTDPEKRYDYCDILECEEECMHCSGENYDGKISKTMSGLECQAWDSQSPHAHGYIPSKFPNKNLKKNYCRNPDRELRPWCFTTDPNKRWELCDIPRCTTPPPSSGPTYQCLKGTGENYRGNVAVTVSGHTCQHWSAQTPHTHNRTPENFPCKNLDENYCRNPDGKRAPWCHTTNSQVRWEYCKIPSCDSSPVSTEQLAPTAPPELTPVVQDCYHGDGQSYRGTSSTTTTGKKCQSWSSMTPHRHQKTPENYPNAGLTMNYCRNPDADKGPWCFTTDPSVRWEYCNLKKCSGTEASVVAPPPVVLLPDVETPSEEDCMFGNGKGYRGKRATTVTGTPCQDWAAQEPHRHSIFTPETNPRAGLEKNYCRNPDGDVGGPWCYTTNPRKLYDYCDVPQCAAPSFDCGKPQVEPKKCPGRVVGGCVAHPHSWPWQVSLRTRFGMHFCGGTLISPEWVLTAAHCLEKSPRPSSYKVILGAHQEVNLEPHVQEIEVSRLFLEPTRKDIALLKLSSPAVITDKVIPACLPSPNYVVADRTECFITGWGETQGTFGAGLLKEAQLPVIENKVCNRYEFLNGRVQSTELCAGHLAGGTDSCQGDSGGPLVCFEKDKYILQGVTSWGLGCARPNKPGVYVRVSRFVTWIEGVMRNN
[5F]FFR-[Lys]Pg ([Lys]plasminogen inactivated with ATA-FFR-CH2Cl and labeled with 5-(iodoacetamido)fluorescein) (human), sequence (P00747 whole entry): as above

Row | Substance | Kd ([Lys]plasminogen (human) [1]) | Kd [2] | Kd [3] | Kd ([Lys]plasminogen (human) [4])
1 | SKΔ(R253-L260)ΔK414-His6 (TEVp-cleaved His6-(TEVp cleavage site)-SKΔ(R253-L260)ΔK414-His6) (from UniProt P00779 27-440) (natural protein) | 28 nM | 470 nM | 820 nM | 
2 | wtSK-His6 (TEVp-cleaved His6-wtSK-His6) (from UniProt P00779 27-440) (natural protein) |  | 240 nM | 290 nM | 32 nM
3 | SKΔ(R253-L260) (from UniProt P00779 27-440) (natural protein) |  |  |  | 78 nM
4 | recombinant wild-type streptokinase (from UniProt P00779 27-440) (natural protein) | 1.6 nM |  |  | 33 nM
5 | Native streptokinase (from UniProt P00779 27-440) (natural protein) | 1.6 nM |  |  | 
